Here are results for one molecule from US20020155563A1 (Bristol-Myers Squibb, published 2002).

For this assay, the target named is T1, Grb2 (adapter protein, from Jurkat T cell lysates) (human, UniProt P62993 1-217).
T1 construct: also called adapter protein Grb2
Kind of assay: pull-down from Jurkat lysates on Talon beads, anti-Grb2 immunoblot. The method, then: In this Example, experiments were performed to determine if human MIST provided by the present invention associated with signaling proteins critical for cell activation. For this purpose, cell lysates from unstimulated Jurkat T cells, or TCR/CD3-activated Jurkat T cells, were prepared and precipitated with Talon resin beads (Clontech, Palo Alto, Calif.) preloaded with equivalent amounts (5 μg total) of His-MIST fusion proteins. The phosphotyrosine content of precipitated proteins was analyzed by SDS-PAGE followed by Western blotting with an anti-phosphotyrosine specific antibody (4G10, UBI, Hauppague, N.Y.).
More specifically, Jurkat T cells (10⁷/lane) were unstimulated, or were stimulated with monoclonal antibody (MoAb) to the T-cell receptor TCR/CD3 (G19-4-BMS) for 5 minutes at 37° C., and then lysed in 1% NP40-containing lysis buffer and incubated with Talon beads preloaded with equivalent amounts (50 μl of slurry resin) of the indicated His-MIST fusion proteins. Reactants and immunoprecipitates were subjected to SDS-PAGE on 4-20% gradient gels. […] Blot stripping was performed and the membrane was subsequently re-probed with anti-Grb2 MoAb (Santa Cruz Biotechnology, Inc., Santa Cruz, Calif.), anti-Cbl MoAb (Santa Cruz Biotechnology, Inc., Santa Cruz, Calif.), or anti-Vav1 MoAb (Upstate Biotechnology, Inc., Lake Placid, N.Y.).
(In general: Immunoblotting shows a protein as a band on a membrane.)

T1 sequence (P62993 whole entry): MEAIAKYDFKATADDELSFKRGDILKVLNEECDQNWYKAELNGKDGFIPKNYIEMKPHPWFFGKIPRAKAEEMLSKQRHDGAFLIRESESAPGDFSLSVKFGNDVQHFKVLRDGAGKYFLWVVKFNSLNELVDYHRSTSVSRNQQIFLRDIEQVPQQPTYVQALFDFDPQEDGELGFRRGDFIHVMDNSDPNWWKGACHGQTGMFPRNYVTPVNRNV

B1: His-MIST-SH2 (poly-histidine tagged MIST SH2 domain, residues 320-443) (other, not shown: small tags and cut ends)
chain: QHNEWYIGEYSRQAVEEAFMKENKDGSFLVRDCSTKSKEEPYVLAVFYENKVYNVKIRFLERNQQFALGTGLRGDEKFDSVEDIIEHYKNFPIILIDGKDKTGVHRKQCHLTQPLPLTRHLLPL
notes: Recombinant, Sf9 cells; also called His-MIST-SH2 fusion protein
With B1, the binding result was “no binding”.
